Measured values as given in patent publication US20040106545A1 (MCGILL UNIVERSITY, published 2004).
Where two headings read alike, the source gives them in different places. Positions of bridges follow the written chain, without caps; N, C: chain ends.

Tests used:
Assay in all cases: cell-based or functional assay
[1] = molecular target: N-cadherin expressed on transfected 3T3 cells (Examples 2 and 21)
[2] = molecular target: T1, chick N-cadherin expressed on transfected 3T3 cells (chick, UniProt P10288 165-912)
T1 sequence (looked up): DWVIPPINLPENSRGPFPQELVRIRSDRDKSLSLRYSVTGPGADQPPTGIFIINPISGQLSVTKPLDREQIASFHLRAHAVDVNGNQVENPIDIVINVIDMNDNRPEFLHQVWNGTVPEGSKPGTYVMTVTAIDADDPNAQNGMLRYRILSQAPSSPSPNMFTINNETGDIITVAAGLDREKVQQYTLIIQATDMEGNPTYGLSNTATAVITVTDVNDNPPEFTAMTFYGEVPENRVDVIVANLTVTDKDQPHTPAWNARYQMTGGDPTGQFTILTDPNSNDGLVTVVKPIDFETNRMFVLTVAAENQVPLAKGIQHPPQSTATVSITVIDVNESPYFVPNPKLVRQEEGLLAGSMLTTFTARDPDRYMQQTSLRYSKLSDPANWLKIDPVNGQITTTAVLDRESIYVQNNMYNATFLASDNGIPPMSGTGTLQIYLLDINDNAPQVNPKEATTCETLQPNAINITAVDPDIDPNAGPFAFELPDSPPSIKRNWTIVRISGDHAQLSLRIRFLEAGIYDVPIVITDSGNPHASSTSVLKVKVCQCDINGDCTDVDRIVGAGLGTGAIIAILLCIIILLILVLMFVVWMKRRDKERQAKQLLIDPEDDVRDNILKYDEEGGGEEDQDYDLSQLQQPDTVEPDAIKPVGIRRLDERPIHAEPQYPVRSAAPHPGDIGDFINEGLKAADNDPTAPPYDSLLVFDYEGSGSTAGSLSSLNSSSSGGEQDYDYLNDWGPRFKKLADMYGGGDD

[3] = molecular target: T1, chick N-cadherin expressed on …; remark: listed apart in the source
[4] = molecular target: T1, chick N-cadherin expressed on …; remark: listed apart in the source
[5] = molecular target: T2, E-cadherin on Madin Darby canine kidney (MDCK) cells (canine (MDCK cells), UniProt F1PAA9 157-885)
T2 sequence (looked up): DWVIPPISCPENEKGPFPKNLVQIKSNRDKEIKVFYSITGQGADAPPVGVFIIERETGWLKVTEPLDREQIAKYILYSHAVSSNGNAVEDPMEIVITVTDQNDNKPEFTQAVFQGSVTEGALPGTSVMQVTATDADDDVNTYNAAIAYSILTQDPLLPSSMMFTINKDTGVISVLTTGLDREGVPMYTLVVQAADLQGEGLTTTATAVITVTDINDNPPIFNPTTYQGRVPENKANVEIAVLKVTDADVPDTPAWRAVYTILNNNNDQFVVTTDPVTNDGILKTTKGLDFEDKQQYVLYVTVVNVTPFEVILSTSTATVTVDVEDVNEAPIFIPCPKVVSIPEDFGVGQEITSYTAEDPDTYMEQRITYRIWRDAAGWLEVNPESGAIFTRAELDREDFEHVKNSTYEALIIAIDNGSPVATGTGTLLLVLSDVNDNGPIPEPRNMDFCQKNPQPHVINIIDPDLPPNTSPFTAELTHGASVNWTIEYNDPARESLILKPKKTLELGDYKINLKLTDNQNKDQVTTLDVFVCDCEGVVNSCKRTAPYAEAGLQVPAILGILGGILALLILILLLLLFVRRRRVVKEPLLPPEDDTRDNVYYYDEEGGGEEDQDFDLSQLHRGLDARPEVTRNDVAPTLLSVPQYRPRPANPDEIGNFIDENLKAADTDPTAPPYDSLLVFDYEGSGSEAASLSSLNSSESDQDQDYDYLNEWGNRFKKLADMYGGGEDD

[6] = molecular target: T1, chick N-cadherin expressed on …; remark: listed apart in the source

Binder	% Inhibition of neurite outgrowth, 250 µg/mL (rat neurons) [1] [%]	% inhibition of N-cadherin dependent neurite outgrowth (peptide 250 µg/mL) [2] [%]	further results
H-CHAVC-NH2 (disulfide 1-5 (inferred)) [H-CHAVC-NH2]	0	1.7	Percent Inhibition of N-cadherin dependent neurite outgrowth (peptide 250 µg/ml) [3]: 1.7%
H-CAHAVDC-NH2 (disulfide 1-7; SMILES CC(C)[C@@H]1NC(=O)[C@H](C)NC(=O)[C@H](Cc2c[nH]cn2)NC(=O)[C@H](C)NC(=O)[C@@H](N)CSSC[C@@H](C(N)=O)NC(=O)[C@H](CC(=O)O)NC1=O) [H-CAHAVDC-NH2]	0	1.3	Percent Inhibition of N-cadherin dependent neurite outgrowth (peptide 250 µg/ml) [3]: 1.3%
Ac-CHAVCS-NH2 (disulfide 1-5 (inferred)) [N-Ac-CHAVC-S-NH2]			Percent Inhibition of N-cadherin dependent neurite outgrowth (peptide 250 µg/ml) [4]: 6.9%; EC50, decrease of electrical resistance across MDCK cell monolayer [5]: 490 µM
Ac-SCHAVC-NH2 (disulfide 2-6; SMILES CC(=O)N[C@@H](CO)C(=O)N[C@H]1CSSC[C@@H](C(N)=O)NC(=O)[C@H](C(C)C)NC(=O)[C@H](C)NC(=O)[C@H](Cc2c[nH]cn2)NC1=O) [N-Ac-S-CHAVC-NH2]			EC50, decrease of electrical resistance across MDCK cell monolayer [5]: 490 µM
Ac-CHAVCT-NH2 (disulfide 1-5 (inferred)) [N-Ac-CHAVC-T-NH2]			Percent Inhibition of N-cadherin dependent neurite outgrowth (peptide 250 µg/ml) [4]: 23.7%; EC50, decrease of electrical resistance across MDCK cell monolayer [5]: 480 µM
Ac-CHAVCSS-NH2 (disulfide 1-5 (inferred)) [N-Ac-CHAVC-SS-NH2]			Percent Inhibition of N-cadherin dependent neurite outgrowth (peptide 250 µg/ml) [4]: 37.8%; EC50, decrease of electrical resistance across MDCK cell monolayer [5]: 430 µM
Ac-CHAVCD-NH2 (disulfide 1-5 (inferred)) [N-Ac-CHAVC-D-NH2]			Percent Inhibition of N-cadherin dependent neurite outgrowth (peptide 250 µg/ml) [4]: 3.3%; EC50, decrease of electrical resistance across MDCK cell monolayer [5]: 470 µM
Ac-CLRAHGVDC-NH2 (disulfide 1-9 (inferred)) [N-Ac-CLRAHGVDC-NH2]	0	-6.8	
H-CAHGVDC-NH2 (disulfide 1-7 (inferred)) [H-CAHGVDC-NH2]	0	5.7	
H-CAHGVDIC-NH2 (disulfide 1-8 (inferred)) [H-CAHGVDIC-NH2]	0	7.2	
Ac-CSHGVC-NH2 (disulfide 1-6; SMILES CC(=O)N[C@H]1CSSC[C@@H](C(N)=O)NC(=O)[C@H](C(C)C)NC(=O)CNC(=O)[C@H](Cc2c[nH]cn2)NC(=O)[C@H](CO)NC1=O) [N-Ac-CSHGVC-NH2]	0	12.5	
Ac-CHAVSC-NH2 (disulfide 1-6 (inferred)) [N-Ac-CHAVSC-NH2]	0	-2.5	
Ac-CHGVSC-NH2 (disulfide 1-6 (inferred)) [N-Ac-CHGVSC-NH2]	0	-6.7	
Ac-CSHAVSC-NH2 (disulfide 1-7; SMILES CC(=O)N[C@H]1CSSC[C@@H](C(N)=O)NC(=O)[C@H](CO)NC(=O)[C@H](C(C)C)NC(=O)[C@H](C)NC(=O)[C@H](Cc2c[nH]cn2)NC(=O)[C@H](CO)NC1=O) [N-Ac-CSHAVSC-NH2]	0	8.3	
Ac-CSHGVSC-NH2 (disulfide 1-7; SMILES CC(=O)N[C@H]1CSSC[C@@H](C(N)=O)NC(=O)[C@H](CO)NC(=O)[C@H](C(C)C)NC(=O)CNC(=O)[C@H](Cc2c[nH]cn2)NC(=O)[C@H](CO)NC1=O) [N-Ac-CSHGVSC-NH2]	0	10.8	
Ac-CSHAVSSC-NH2 (disulfide 1-8; SMILES CC(=O)N[C@H]1CSSC[C@@H](C(N)=O)NC(=O)[C@H](CO)NC(=O)[C@H](CO)NC(=O)[C@H](C(C)C)NC(=O)[C@H](C)NC(=O)[C@H](Cc2c[nH]cn2)NC(=O)[C@H](CO)NC1=O) [N-Ac-CSHAVSSC-NH2]	0	-12.6	
Ac-CSHGVSSC-NH2 (disulfide 1-8; SMILES CC(=O)N[C@H]1CSSC[C@@H](C(N)=O)NC(=O)[C@H](CO)NC(=O)[C@H](CO)NC(=O)[C@H](C(C)C)NC(=O)CNC(=O)[C@H](Cc2c[nH]cn2)NC(=O)[C@H](CO)NC1=O) [N-Ac-CSHGVSSC-NH2]	0	-5.6	
Ac-CHAVSSC-NH2 (disulfide 1-7 (inferred)) [N-Ac-CHAVSSC-NH2]	0	34.4	
Ac-CHGVSSC-NH2 (disulfide 1-7 (inferred)) [N-Ac-CHGVSSC-NH2]	0	14.8	
Ac-CHAVDINGC-NH2 (disulfide 1-9 (inferred)) [N-Ac-CHAVDINGC-NH2]			% inhibition of neurite outgrowth (peptide 125 µg/mL) [6]: 1.5%
Ac-CHAVPC-NH2 (disulfide 1-6 (inferred)) [N-Ac-CHAVPC-NH2]			% inhibition of neurite outgrowth (peptide 125 µg/mL) [6]: 58%; EC50 for inhibition of neurite outgrowth [6]: 185 µM
Ac-SCHAVCS-NH2 (disulfide 2-6; SMILES CC(=O)N[C@@H](CO)C(=O)N[C@H]1CSSC[C@@H](C(=O)N[C@@H](CO)C(N)=O)NC(=O)[C@H](C(C)C)NC(=O)[C@H](C)NC(=O)[C@H](Cc2c[nH]cn2)NC1=O) [N-Ac-S-CHAVC-S-NH2]			Percent Inhibition of N-cadherin dependent neurite outgrowth (peptide 250 µg/ml) [4]: 15.7%
Ac-YCHAVC-NH2 (disulfide 2-6; SMILES CC(=O)N[C@@H](Cc1ccc(O)cc1)C(=O)N[C@H]1CSSC[C@@H](C(N)=O)NC(=O)[C@H](C(C)C)NC(=O)[C@H](C)NC(=O)[C@H](Cc2c[nH]cn2)NC1=O) [N-Ac-YCHAVC-NH2]			Percent Inhibition of N-cadherin dependent neurite outgrowth (peptide 250 µg/ml) [4]: 10.6%
Ac-CHAVCE-NH2 (disulfide 1-5 (inferred)) [N-Ac-CHAVC-E-NH2]			Percent Inhibition of N-cadherin dependent neurite outgrowth (peptide 250 µg/ml) [4]: 32.5%
